# Experimental data from article doi:10.1101/2023.04.12.536585, “Allosteric activation or inhibition of PI3Kγ mediated through conformational changes in the p110γ helical domain” (bioRxiv, 2023).
# B1: Nanobody NB7-PIK3CG (VHH)
# VHH: QVQLVESGGGLVQPGGSLRLSCAASGSIFSINAMGWYRQAPGKQRELVAHITSGGSTNYADSVKGRFTISRDNAKNTVYLQMNSLKPEDTAVYYCNEAGDPFLGSTWNGPPAFGSWGQGTQVTVSS
# notes: Identified earlier (Rathinaswamy et al., 2021b); also called His-NB7; nanobody 7; source: E. coli WK6 periplasm (pMESy4 vector), purified (Ni-NTA, SEC); not shown: His6, C-terminal, kept
# How the values were obtained:
# Experiment in all cases: BLI; His-tagged NB7 (500 nM) immobilised on Anti-Penta-His biosensor, dipped into PI3K in solution; dose response 50-1.9 nM for p110γ, p110γ-p84, p110γ-p101; 50 nM for the class IA comparison; 25 nM for phosphorylated and non-phosphorylated p110γ; Octet buffer 20 mM Tris pH 8.5, 100 mM NaCl, 50 mM ammonium sulfate, 0.1% BSA, 0.02% Tween 20; global fit to a 1:1 model
# Conditions in all cases: both partners purified
# [1] = molecular target: T1, p110γ-p84 complex (human p110γ, mouse p84) (Homo sapiens p110γ; Mus musculus p84, UniProt P48736;Q3U6Q4)
# T1 construct: p110γ catalytic subunit, human; plasmid pMultiBac-hsp110γ-mmp84 (MR24); p84 regulatory subunit of PI3Kγ, Mus musculus; The tag stood on p84 for purification and was cleaved by TEV on the column; also called p110/p84; not shown: 10xHis, N-terminal, cleaved; 2xStrep, N-terminal, cleaved
# T1 sequence (P48736 whole entry, chain 1 of 2): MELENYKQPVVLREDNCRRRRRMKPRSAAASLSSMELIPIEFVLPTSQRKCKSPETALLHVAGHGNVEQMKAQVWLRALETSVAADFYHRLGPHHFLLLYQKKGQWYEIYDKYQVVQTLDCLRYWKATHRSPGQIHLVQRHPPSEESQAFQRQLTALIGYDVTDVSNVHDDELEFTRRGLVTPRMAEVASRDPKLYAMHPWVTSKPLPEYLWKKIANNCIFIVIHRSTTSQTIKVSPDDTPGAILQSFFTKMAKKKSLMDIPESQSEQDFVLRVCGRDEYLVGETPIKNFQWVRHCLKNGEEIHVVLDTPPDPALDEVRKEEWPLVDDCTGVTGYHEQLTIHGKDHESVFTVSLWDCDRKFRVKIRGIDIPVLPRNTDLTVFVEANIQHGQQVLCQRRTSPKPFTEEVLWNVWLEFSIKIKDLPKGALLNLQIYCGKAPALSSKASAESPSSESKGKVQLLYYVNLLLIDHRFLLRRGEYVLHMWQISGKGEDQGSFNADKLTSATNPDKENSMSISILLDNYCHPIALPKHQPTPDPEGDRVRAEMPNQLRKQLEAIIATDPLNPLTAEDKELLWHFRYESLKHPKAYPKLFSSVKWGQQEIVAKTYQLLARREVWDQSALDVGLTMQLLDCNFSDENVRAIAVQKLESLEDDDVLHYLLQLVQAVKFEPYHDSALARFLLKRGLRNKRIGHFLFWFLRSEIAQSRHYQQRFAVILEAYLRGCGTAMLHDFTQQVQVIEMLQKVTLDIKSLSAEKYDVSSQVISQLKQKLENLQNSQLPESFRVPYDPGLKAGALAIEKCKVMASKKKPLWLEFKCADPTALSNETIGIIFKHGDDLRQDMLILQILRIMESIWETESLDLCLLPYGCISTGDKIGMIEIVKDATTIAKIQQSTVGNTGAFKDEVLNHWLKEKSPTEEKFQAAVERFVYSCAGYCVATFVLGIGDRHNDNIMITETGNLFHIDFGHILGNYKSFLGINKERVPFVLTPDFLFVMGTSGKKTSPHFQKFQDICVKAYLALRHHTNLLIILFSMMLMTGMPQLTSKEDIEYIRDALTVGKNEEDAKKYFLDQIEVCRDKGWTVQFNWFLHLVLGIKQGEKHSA
# T1 sequence (Q3U6Q4 whole entry, chain 2 of 2): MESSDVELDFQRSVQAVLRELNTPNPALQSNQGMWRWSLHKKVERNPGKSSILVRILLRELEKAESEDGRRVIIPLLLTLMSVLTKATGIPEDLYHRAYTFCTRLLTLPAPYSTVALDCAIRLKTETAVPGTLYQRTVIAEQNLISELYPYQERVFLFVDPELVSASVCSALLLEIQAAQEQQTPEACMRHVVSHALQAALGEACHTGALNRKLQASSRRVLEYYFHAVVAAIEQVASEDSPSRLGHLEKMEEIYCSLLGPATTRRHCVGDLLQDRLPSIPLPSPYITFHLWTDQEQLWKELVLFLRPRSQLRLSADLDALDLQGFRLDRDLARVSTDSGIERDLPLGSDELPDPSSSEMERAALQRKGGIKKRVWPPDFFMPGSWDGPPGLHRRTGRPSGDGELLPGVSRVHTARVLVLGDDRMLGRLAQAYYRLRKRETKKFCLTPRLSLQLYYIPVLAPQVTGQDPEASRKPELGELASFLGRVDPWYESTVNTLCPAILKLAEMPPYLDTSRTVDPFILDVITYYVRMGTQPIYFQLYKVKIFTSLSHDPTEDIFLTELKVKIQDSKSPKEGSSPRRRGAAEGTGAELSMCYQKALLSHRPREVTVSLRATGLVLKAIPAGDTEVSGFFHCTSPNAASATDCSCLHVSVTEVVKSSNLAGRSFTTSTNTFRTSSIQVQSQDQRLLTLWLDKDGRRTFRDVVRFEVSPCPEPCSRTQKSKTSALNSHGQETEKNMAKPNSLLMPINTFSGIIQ
# p110β-p85β complex = molecular target: T2, p110β-p85β complex (Homo sapiens (assumed), UniProt P42338;O00459)
# T2 construct: p110β class IA PI3K catalytic subunit; plasmid pFASTBac p110β (pOV1182); p85β class IA regulatory subunit; also called PI3Kβ; source: PI3Kα gel filtration buffer
# T2 sequence (P42338 whole entry, chain 1 of 2): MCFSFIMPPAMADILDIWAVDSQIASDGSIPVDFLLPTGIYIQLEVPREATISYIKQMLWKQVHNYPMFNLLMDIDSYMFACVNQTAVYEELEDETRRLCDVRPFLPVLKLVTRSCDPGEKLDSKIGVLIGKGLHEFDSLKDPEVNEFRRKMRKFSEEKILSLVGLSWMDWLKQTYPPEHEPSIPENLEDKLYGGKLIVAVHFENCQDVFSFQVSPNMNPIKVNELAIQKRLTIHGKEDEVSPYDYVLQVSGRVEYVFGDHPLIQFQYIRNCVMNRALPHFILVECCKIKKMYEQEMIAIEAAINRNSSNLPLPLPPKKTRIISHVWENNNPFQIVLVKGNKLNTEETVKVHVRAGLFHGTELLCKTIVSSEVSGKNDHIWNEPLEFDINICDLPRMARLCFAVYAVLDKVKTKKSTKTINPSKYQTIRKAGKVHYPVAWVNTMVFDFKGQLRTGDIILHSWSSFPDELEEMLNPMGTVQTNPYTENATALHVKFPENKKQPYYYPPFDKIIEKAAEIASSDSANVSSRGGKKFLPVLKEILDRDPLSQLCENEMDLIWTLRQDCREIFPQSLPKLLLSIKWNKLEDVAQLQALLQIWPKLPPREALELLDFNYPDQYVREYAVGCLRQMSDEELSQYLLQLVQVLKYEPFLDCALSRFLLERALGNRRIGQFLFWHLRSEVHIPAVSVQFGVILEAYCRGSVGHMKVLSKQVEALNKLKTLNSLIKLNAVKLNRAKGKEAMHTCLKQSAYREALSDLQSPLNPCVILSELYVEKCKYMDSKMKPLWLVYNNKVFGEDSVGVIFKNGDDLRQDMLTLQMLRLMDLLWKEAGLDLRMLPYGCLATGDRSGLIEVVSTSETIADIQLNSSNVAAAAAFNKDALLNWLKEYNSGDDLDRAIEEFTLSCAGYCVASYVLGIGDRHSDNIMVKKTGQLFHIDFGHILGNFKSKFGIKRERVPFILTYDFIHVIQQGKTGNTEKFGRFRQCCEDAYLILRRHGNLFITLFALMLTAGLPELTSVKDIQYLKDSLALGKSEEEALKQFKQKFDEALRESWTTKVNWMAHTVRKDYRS
# T2 sequence (O00459 whole entry, chain 2 of 2): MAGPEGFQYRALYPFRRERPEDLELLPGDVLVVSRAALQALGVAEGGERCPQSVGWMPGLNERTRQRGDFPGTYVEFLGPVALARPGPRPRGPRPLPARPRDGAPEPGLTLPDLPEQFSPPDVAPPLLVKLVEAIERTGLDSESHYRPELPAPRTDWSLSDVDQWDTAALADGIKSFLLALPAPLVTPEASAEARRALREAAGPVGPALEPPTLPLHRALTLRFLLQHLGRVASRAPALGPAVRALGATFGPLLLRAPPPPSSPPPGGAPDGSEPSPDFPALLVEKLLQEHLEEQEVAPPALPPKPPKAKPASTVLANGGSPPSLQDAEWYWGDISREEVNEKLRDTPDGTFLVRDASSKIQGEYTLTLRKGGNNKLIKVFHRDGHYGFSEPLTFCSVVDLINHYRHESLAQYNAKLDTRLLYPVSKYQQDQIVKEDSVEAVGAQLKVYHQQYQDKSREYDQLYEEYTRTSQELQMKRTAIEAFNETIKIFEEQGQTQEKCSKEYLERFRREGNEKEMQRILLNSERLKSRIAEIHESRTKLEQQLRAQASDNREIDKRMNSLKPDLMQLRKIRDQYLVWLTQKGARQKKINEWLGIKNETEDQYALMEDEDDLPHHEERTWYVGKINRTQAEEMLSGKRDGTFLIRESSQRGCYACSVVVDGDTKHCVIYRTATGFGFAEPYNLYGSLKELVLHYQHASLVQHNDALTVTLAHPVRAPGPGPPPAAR
# [2] = molecular target: T3, p110γ-p101 complex (human p110γ, porcine p101) (Homo sapiens p110γ; Sus scrofa p101, UniProt P48736;O02696)
# T3 construct: p110γ catalytic subunit, human; plasmid pMultiBac-hsp110γ-ssp101 (MR22); full length p110γ in the p110γ-p101 model PDB 7MEZ; p101 regulatory subunit of PI3Kγ, Sus scrofa; The tag stood on p101 for purification and was cleaved by TEV on the column; also called p110/p101; not shown: 10xHis, N-terminal, cleaved; 2xStrep, N-terminal, cleaved
# p110α-p85α complex = molecular target: T4, p110α-p85α complex (Homo sapiens (assumed), UniProt P42336;P27986)
# T4 construct: p110α class IA PI3K catalytic subunit; plasmid pFASTBac p110α (pOV1181); p85α class IA regulatory subunit; Plasmids as described in Dornan et al., 2017 and Siempelkamp et al., 2017; also called PI3Kα; source: PI3Kα gel filtration buffer
# p110δ-p85β complex = molecular target: T5, p110δ-p85β complex (Homo sapiens (assumed), UniProt O00329;O00459)
# T5 construct: p110δ class IA PI3K catalytic subunit; plasmid pFASTBac p110δ (pOV1183); p85β class IA regulatory subunit; also called PI3Kδ; source: PI3Kα gel filtration buffer
# T5 sequence (O00329 whole entry, stated change not applied, chain 1 of 2): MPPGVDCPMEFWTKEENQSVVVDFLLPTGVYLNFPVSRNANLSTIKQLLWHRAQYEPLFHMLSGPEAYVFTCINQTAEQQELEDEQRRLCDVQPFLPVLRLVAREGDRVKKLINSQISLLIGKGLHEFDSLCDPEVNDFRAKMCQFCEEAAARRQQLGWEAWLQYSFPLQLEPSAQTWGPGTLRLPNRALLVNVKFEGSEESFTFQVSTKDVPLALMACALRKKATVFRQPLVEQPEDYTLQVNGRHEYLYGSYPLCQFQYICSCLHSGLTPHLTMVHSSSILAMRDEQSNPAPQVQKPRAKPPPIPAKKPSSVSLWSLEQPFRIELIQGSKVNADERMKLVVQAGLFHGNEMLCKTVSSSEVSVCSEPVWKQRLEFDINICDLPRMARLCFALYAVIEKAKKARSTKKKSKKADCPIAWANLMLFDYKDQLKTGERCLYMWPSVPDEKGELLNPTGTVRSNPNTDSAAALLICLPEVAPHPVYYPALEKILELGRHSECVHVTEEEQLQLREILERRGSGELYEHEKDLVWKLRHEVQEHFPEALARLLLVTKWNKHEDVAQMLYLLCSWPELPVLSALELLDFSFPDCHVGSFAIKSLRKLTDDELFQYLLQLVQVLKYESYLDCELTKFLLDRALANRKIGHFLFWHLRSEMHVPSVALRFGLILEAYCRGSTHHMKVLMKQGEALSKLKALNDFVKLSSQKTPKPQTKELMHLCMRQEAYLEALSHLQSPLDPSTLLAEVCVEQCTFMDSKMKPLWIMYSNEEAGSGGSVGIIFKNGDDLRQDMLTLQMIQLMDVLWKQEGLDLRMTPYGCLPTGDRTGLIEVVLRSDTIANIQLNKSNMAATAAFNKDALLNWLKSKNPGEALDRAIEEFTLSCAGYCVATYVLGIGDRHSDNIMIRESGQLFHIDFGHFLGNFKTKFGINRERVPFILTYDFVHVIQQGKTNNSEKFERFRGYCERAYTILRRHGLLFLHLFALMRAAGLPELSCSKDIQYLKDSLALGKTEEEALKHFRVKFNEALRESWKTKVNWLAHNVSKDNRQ
# T5 sequence (O00459 whole entry, stated change not applied, chain 2 of 2): as the sequence (O00459 whole entry, chain 2 of 2) above
binder,measurement,setting,value
B1,Kd,[1],~2 nM
same,binding result,p110β-p85β complex,no binding (tested: 50 nM)
same,Kd,[2],~2 nM
same,binding result,p110α-p85α complex,no binding (tested: 50 nM)
same,binding result,p110δ-p85β complex,no binding (tested: 50 nM)
